Reference: US7223596B2, “Malignant endothelial cell line and uses thereof in models for angiogenesis” (Wisconsin Alumni Research Foundation, priority 2003, dated 2007)

How the values were obtained:
SB-HSA tumors = experiment: treatment of SB-HSA tumor-bearing mice (subcutaneous canine hemangiosarcoma xenograft); format: in vivo; conditions: NOD-SCID mice injected s.c. with SB-HSA cells, vs PBS control
Method: For example, IL-12 was also shown, to suppress the growth of canine hemangiosarcoma in vivo in this model. IL-12 is a cytokine with pleotropic effects including suppression of angiogenesis due to in vivo inhibition of endothelial cell growth. This activity is mediated by downstream chemokines such as IP-10 and Mig, which are induced by interferon-γ in response to IL-12. […] Control mice that were injected subcutaneously with SB-HSA cells and received phosphate buffered saline developed tumors at the site of cell inoculation by the second week that progressively enlarged over a 4-week observation period.
Canine hemangiosarcoma xenografts were established in NOD-SCID mice by injection of 5×10^6 SB-HSA cells suspended in 200 μl PBS over the dorsum using a 26 gauge needle and tuberculin syringe. Mice were examined every other day until tumors were detected and measured with calipers. Animals were sacrificed when tumors reached a size of 1 cm^3.
NOD-SCID mice were injected subcutaneously over the dorsum with SB-HSA cells (5×10^6 cells/200 μl). […] Pumps were designed to deliver 6 μl/day (1 μg IL-12/day for four weeks. The mice were examined every other day for tumor development. The two largest perpendicular diameters were measured with calipers.

[1] = system: angiogenesis induced by SB-HSA cells; experiment: corneal pocket angiogenesis assay with sponges containing SB-HSA cells; format: in vivo; conditions: BALB/c mice, sponges with 70,000 SB-HSA cells in cornea; continuous subcutaneous infusion by osmotic pump from day 2; examined one week after treatment; vs PBS-treated control
Method: IL-12 is a cytokine with both immunostimulatory and antiangiogenic effects. In these experiments, sponges containing 70,000 SB-HSA cells were placed into the corneas of BALB/c mice. Two days after placement of the sponges, the mice were randomized to receive either mrIL-12 or phosphate buffered saline. Each was delivered as a continuous subcutaneous infusion by subcutaneously implanted osmotic pumps. One week after treatment, mice were injected with FITC-dextran, euthanized and the corneas examined.
Polyvinyl sponges (Rippey, Eldorado Hills, Calif.) preirradiated with 2000 Gy of gamma irradiation (cesium source) were cut into 4×4×2 mm pieces, and 70,000 SB-HSA cells were introduced into the sponges. BALB/c mice were anesthetized with AVERTIN and a small surgical micropocket was created in the center of the avascular cornea. Sponges were then inserted into the micropocket. Eyes were examined for neovascularization daily using an ophthalmic microscope (Carl Zeiss Inc, Thornwood, N.Y.). […] Phase contrast and fluorescence microscopy were used to visualize the general layout of the cornea and the presence of perfused blood vessels, respectively (Muthukkaruppan, V. and Auerbach, R. Science 1979 205:1416–1418).

B1: Interleukin-12 (protein, UniProt P43431 23-215; P43432 23-335, looked up)
Interleukin-12 subunit alpha: RVIPVSGPARCLSQSRNLLKTTDDMVKTAREKLKHYSCTAEDIDHEDITRDQTSTLKTCLPLELHKNESCLATRETSSTTRGSCLPPQKTSLMMTLCLGSIYEDLKMYQTEFQAINAALQNHNHQQIILDKGMLVAIDELMQSLNHNGETLRQKPPVGEADPYRVKMKLCILLHAFSTRVVTINRVMGYLSSA
Interleukin-12 subunit beta: MWELEKDVYVVEVDWTPDAPGETVNLTCDTPEEDDITWTSDQRHGVIGSGKTLTITVKEFLDAGQYTCHKGGETLSHSHLLLHKKENGIWSTEILKNFKNKTFLKCEAPNYSGRFTCSWLVQRNMDLKFNIKSSSSSPDSRAVTCGMASLSAEKVTLDQRDYEKYSVSCQEDVTCPTAEETLPIELALEARQQNKYENYSTSFFIRDIIKPDPPKNLQMKPLKNSQVEVSWEYPDSWSTPHSYFSLKFFVRIQRKKEKMKETEEGCNQKGAFLVEKTSTEVQCKGGNVCVQAQDRYYNSSCSKWACVPCRVRS
growth of tumors (SB-HSA tumors; continuous subcutaneous infusion 1 μg IL-12/day for four weeks): initially suppressed for two weeks followed by slower growth
tumor size at end of observation period (SB-HSA tumors; continuous subcutaneous infusion 1 μg IL-12/day, end of 4-week observation period): significantly smaller size
corneal neovascularity [1]: significantly less corneal neovascularity
